From publication PMC10942606 (eLife, 2023)
Read-outs that look alike come from different tables or passages of the source. Blank lines part the entries; values can stand above or below the binder they belong to.

B1: SpPCNA (recombinant S. pombe PCNA) (natural protein, UniProt Q03392 1-260, looked up)
chain: MLEARFQQAALLKKLLDAIKELVTDANFDCNDNGISLQAMDSSHVALVSMLIKSDGFEPYRCDRNIALGINLNALSKVLRCAQNEDLVTLKAEDTPEVLNLVFESEKNDRISDYDVKLMDIDQEHLGIPDIEYDATITMPAAEFQRITRDLLTLSDSVTINASKEGVRFSCKGDIGNGSTTLKQHTDLSDQDQSIEISLTQAVTLTFSLKYLAQFTKATPLATRVTLSMSNDVPLLVEYKMESGFLRFYLAPKIGEEDEE
B4: Pcf1 (large subunit of SpCAF-1) (natural protein, S. pombe, UniProt Q1MTN9 1-544, looked up)
chain: MNSESVDSDVAASTSNKGNELCSSSTDITSLSVSSPNESVIHSSHSASEADEYVCKLSYEGNRKKRIYNGSAEAGKEKKLQKQRAQEERIRQKEAERLKREKERQQREQEKKLREQEKIAAKKMKELEKLEKERIRLQEQQRRKEERDQKLREKEEAQRLRQEQILNKERQQLKLNNFFTKGVEKRIAPNENFVADKTDELNEFEKEFRPFFIKHQMSLSKYPSPNESDSFLDEVLSTSKSYPLKLNDIFTPSDAVSSANSLGVSNRNSENEVRQLMSAYQDPSVSKPQEILSCLSQIPIKFIFFYQDVRPPYFGSYTKTHSHGSNVLLNPWLEDEDIDYTYDSEAEWVADEEDDGEDLESEDEEVDNSDDIVEDGDNAFVDDEDDDKDSVNASNTHRSSGPLEVIVEGPVWDSKFLPDFNCLSLIEPISSFSASTYLQIDPKEDLWASQDTAPASSGMTIGPTSSLSDDLQVRFPSEDIPKFIEYVRNSHDNKVFLIENLRHMFPYVTKNIISETLGKVAVRKGKSVSDGWIIKENFASLLSS

What was measured:
[1] = target: SpCAF-1 complex (Pcf1-Pcf2-Pcf3), wild type, full length (S. pombe, UniProt Q1MTN9 1-544; O13985 1-512; Q9Y825 1-408); assay: native gel or EMSA
[2] = target: FLAG-Pcf1-ED* (expressed from the endogenous pcf1 gene) (S. pombe, UniProt Q1MTN9 1-544, Y340A | W348A); assay: co-IP
[3] = target: B4; assay: SEC-SAXS
S. pombe histones H3−H4 [4] = target: T1, S. pombe histones H3−H4 (S. pombe, UniProt P09988 1-136; P09322 1-103); assay: NMR titration
SEC = target: the molecule itself; assay: SEC
S. pombe histones H3−H4 [5] = target: T1, S. pombe histones H3−H4; assay: NMR titration; remark: listed apart in the source
[6] = target: B1; assay: ITC

Binder: B1
binding result [1]: binds

fold change of bound PCNA against WT Pcf1 [2]: 8 fold of WT Pcf1
B2: PCNA (endogenous, S. pombe) (natural protein, S. pombe (endogenous in S. pombe), UniProt Q03392 1-260, looked up)
chain: MLEARFQQAALLKKLLDAIKELVTDANFDCNDNGISLQAMDSSHVALVSMLIKSDGFEPYRCDRNIALGINLNALSKVLRCAQNEDLVTLKAEDTPEVLNLVFESEKNDRISDYDVKLMDIDQEHLGIPDIEYDATITMPAAEFQRITRDLLTLSDSVTINASKEGVRFSCKGDIGNGSTTLKQHTDLSDQDQSIEISLTQAVTLTFSLKYLAQFTKATPLATRVTLSMSNDVPLLVEYKMESGFLRFYLAPKIGEEDEE

stoichiometry N [3]: 1
B3: Pcf3 (small subunit of SpCAF-1) (natural protein, S. pombe, UniProt Q9Y825 1-408, looked up)
chain: MNTELDMQNFEHIKFLENQISEDHFRWKKNSKHLYNLLITRTLTWPSLSIQWLSAMESITEKAVLKNRLLLGTHAAEGMPNFLQLADLDLPDFNQTILDPVKHYNEDTGELGGYSMQHSCKFQISQRILHNGDVNRVRHMPQNPNIIATMSSCGNAYIFDRTKYTSMPAEEFLPNISLIGHKKEGFGLSWNRQQNCRLVTAANDSKILEWDLNNFSRDTRCLTPVKDFHYDDSPVNDVEYHPHHTNLYIAVNDNGIAFICDNRLQQTCSKTVKASNPLFSVRHNPSIATLFALGSEQDLQLWDLRNLNKSVFNTSEDLSDNRLKVPSRLTLGGTSLSWSWRHSGRIVSACQEYCYVWNFNKANPLEFVHAGHKGTVNEVDFDPFEAQCIASVADDNELHIWKPNVIVN

Binder: B4
binding result (S. pombe histones H3−H4 [4]): binds | binding result (SEC): binds

binding result (S. pombe histones H3−H4 [4]): binds
B5: SpCAF-1-KER* complex (Pcf1 R147E-K150E-K154E-R161E-K168E, Pcf2, Pcf3) (complex, S. pombe)
chain 1: MNSESVDSDVAASTSNKGNELCSSSTDITSLSVSSPNESVIHSSHSASEADEYVCKLSYEGNRKKRIYNGSAEAGKEKKLQKQRAQEERIRQKEAERLKREKERQQREQEKKLREQEKIAAKKMKELEKLEKERIRLQEQQRRKEEEDQELREEEEAQRLEQEQILNEERQQLKLNNFFTKGVEKRIAPNENFVADKTDELNEFEKEFRPFFIKHQMSLSKYPSPNESDSFLDEVLSTSKSYPLKLNDIFTPSDAVSSANSLGVSNRNSENEVRQLMSAYQDPSVSKPQEILSCLSQIPIKFIFFYQDVRPPYFGSYTKTHSHGSNVLLNPWLEDEDIDYTYDSEAEWVADEEDDGEDLESEDEEVDNSDDIVEDGDNAFVDDEDDDKDSVNASNTHRSSGPLEVIVEGPVWDSKFLPDFNCLSLIEPISSFSASTYLQIDPKEDLWASQDTAPASSGMTIGPTSSLSDDLQVRFPSEDIPKFIEYVRNSHDNKVFLIENLRHMFPYVTKNIISETLGKVAVRKGKSVSDGWIIKENFASLLSS
chain 2: MRAEVLQIRWHYDANDDHTPIYSVDFQKNSLNKFATCGGDSKIRIWQLITSESSTKVEYLSTLSRHTQAVNVVRFNPEGNILATAGDEGTIMLWVPTNTPITTLADDAEELALAKEYWKVKIVCRSMGSEIYDLCWSVDSNFLIAGAMDNSLRLYDAHTGQLLTQKFDHSHYVQGVCWDPLNQYIVSESSDRSICLYEIQEEKKNPKKFQLVLKSRICRIEYNVTKFELISVTKPLNNDESSGISEPIETSNNNESPVSKHEALSSTANIVKDGSLERTEPPNSLNSKISYSLYCNETLVSFFRRPAFSPDGLLLVTPAGRLRPHGQPNFEVPYTAYIYTRGSITKQPVACLNGFKKPVIAVRFSPIHYELNSFSNFSFTSVSFNLPYRMVFAVACQDAVYIYDTQTCKPFYRAVNLHYSNLTDIAWNDDGNVLLMTSIDGFCSVITFEPGELGVKSQHKISLPEKRSASPSSIDDSQDNTAGGPATTTLIPRKVESSKVSKKRIAPTPVYP
chain 3: MNTELDMQNFEHIKFLENQISEDHFRWKKNSKHLYNLLITRTLTWPSLSIQWLSAMESITEKAVLKNRLLLGTHAAEGMPNFLQLADLDLPDFNQTILDPVKHYNEDTGELGGYSMQHSCKFQISQRILHNGDVNRVRHMPQNPNIIATMSSCGNAYIFDRTKYTSMPAEEFLPNISLIGHKKEGFGLSWNRQQNCRLVTAANDSKILEWDLNNFSRDTRCLTPVKDFHYDDSPVNDVEYHPHHTNLYIAVNDNGIAFICDNRLQQTCSKTVKASNPLFSVRHNPSIATLFALGSEQDLQLWDLRNLNKSVFNTSEDLSDNRLKVPSRLTLGGTSLSWSWRHSGRIVSACQEYCYVWNFNKANPLEFVHAGHKGTVNEVDFDPFEAQCIASVADDNELHIWKPNVIVN

binding result (S. pombe histones H3−H4 [5]): binds
B6: Pcf1_ED (325-396) (domain or fragment, S. pombe, UniProt Q1MTN9 325-396, looked up)
chain: SNVLLNPWLEDEDIDYTYDSEAEWVADEEDDGEDLESEDEEVDNSDDIVEDGDNAFVDDEDDDKDSVNASNT

stoichiometry N [3]: 1
B7: Pcf2 (medium subunit of SpCAF-1) (natural protein, S. pombe, UniProt O13985 1-512, looked up)
chain: MRAEVLQIRWHYDANDDHTPIYSVDFQKNSLNKFATCGGDSKIRIWQLITSESSTKVEYLSTLSRHTQAVNVVRFNPEGNILATAGDEGTIMLWVPTNTPITTLADDAEELALAKEYWKVKIVCRSMGSEIYDLCWSVDSNFLIAGAMDNSLRLYDAHTGQLLTQKFDHSHYVQGVCWDPLNQYIVSESSDRSICLYEIQEEKKNPKKFQLVLKSRICRIEYNVTKFELISVTKPLNNDESSGISEPIETSNNNESPVSKHEALSSTANIVKDGSLERTEPPNSLNSKISYSLYCNETLVSFFRRPAFSPDGLLLVTPAGRLRPHGQPNFEVPYTAYIYTRGSITKQPVACLNGFKKPVIAVRFSPIHYELNSFSNFSFTSVSFNLPYRMVFAVACQDAVYIYDTQTCKPFYRAVNLHYSNLTDIAWNDDGNVLLMTSIDGFCSVITFEPGELGVKSQHKISLPEKRSASPSSIDDSQDNTAGGPATTTLIPRKVESSKVSKKRIAPTPVYP

Kd [6]: 0.7 ± 0.2 µM | dH [6]: 2.9 ± 0.6 kCal.M^–1 | stoichiometry N [6]: 0.64 ± 0.04
B8: Pcf1_KER-PIP (56-185) (domain or fragment, S. pombe, UniProt Q1MTN9 56-185, looked up)
chain: KLSYEGNRKKRIYNGSAEAGKEKKLQKQRAQEERIRQKEAERLKREKERQQREQEKKLREQEKIAAKKMKELEKLEKERIRLQEQQRRKEERDQKLREKEEAQRLRQEQILNKERQQLKLNNFFTKGVEK

Kd [6]: 7.1 ± 1.5 µM | dH [6]: 1 ± 0.5 kCal.M^–1 | stoichiometry N [6]: 0.7 ± 0.2
B9: Pcf1_KER*-PIP (56-185, R147E-K150E-K154E-R161E-K168E) (domain or fragment, S. pombe, UniProt Q1MTN9 56-185, looked up)
chain: KLSYEGNRKKRIYNGSAEAGKEKKLQKQRAQEERIRQKEAERLKREKERQQREQEKKLREQEKIAAKKMKELEKLEKERIRLQEQQRRKEEEDQELREEEEAQRLEQEQILNEERQQLKLNNFFTKGVEK
